Substrate in the data set: CCCC(=O)Oc1ccc([N+](=O)[O-])cc1
Kind of data set: purified protein. It counts as biochemical, uncultured microorganism. Particulars: free (soluble) enzyme, potassium phosphate pH 6.5, 18 °C, substrate range printed as 1.0 to 10.0 mM, does not fit the printed Km unit.

B1: Est684 (uncultured microorganism) (protein)
chain: MPSGENQFYVDKPSRGENYGAYVADELVEFTRKMFPLSYKKEDTFIAGLSMGGYGALINGLKYHETFSHIGAFSPGLMIDDIASRSELLSVTGWSMDFYGNSFGGIDTIKNSDKDYYYLIDQLLENKKEIPKIYLPIGTDDFLLESVRGFKSFVDKREVPLTYIEDDGGHEWDFWDKYVKNFLEWLPLEEKGNYLNSGNVAEHGFRDADAQKAQAALVAWFEETLKK
notes: E. coli BL21 (DE3); Ni-NTA and Superdex 200; putative triad S103/D167/H203
Take B1: the Km turned out to be 6.01 mM and the kcat was 417.15 ± 1.51 s⁻¹.

One may read the Km as the substrate concentration at which the rate is half of its maximum. What is called kcat is the number of substrate molecules converted per active site and unit of time at saturation.
